What is called IC50 is the concentration at which inhibition is half-maximal. A high value points to a need for much substance.

The target of one assay is HLA-DR DRB1*0101 (human). The experiment in a line: competition vs 125I-labeled peptide, purified HLA.
VVWLIKKNSTYPTIKR (modifications not checked) [Flu.HA.163]: the IC50 was determined as 464 nM.

Turning to IYQILSIYSTVASSLA (modifications not checked) [Flu.HA.529], the IC50 came to 55 nM.

As to EALMEWLKTRPILSP (modifications not checked) [Flu.M1.43], the concentration for half-maximal inhibition (IC50) is 9.5 nM.

In turn, MEWLKTRPILSPLTK (modifications not checked) [Flu.M1.46] returned an IC50 of 52 nM.

With TRPILSPLTKGILGF (modifications not checked) [Flu.M1.51], the IC50 came to 423 nM.

In the case of ILSIYSTVASSLALAI (modifications not checked) [Flu.HA.532], the 50% inhibitory concentration (IC50) worked out at 11 nM.

Consider PTTYISVGTSTLNQRL (modifications not checked) [Flu.HA.210], for which the IC50 amounted to 190 nM.

In the next assay the target is HLA-DR DRB1*0401 (human). The experiment in a line: competition vs 125I-labeled peptide, purified HLA.
Consider VVWLIKKNSTYPTIKR (modifications not checked) [Flu.HA.163], for which the 50% inhibitory concentration (IC50) amounted to 289 nM.

In turn, IYQILSIYSTVASSLA (modifications not checked) [Flu.HA.529] had a 50% inhibitory concentration (IC50) of 89 nM.

EALMEWLKTRPILSP (modifications not checked) [Flu.M1.43]: the IC50 worked out at 891 nM.

Take MEWLKTRPILSPLTK (modifications not checked) [Flu.M1.46]: the IC50 was found to be 528 nM.

ILSIYSTVASSLALAI (modifications not checked) [Flu.HA.532] gave an IC50 of 91 nM.

Molecule PTTYISVGTSTLNQRL (modifications not checked) [Flu.HA.210] came in with an IC50 of 59 nM.

For another assay, the target named is HLA-DR DRB1*1302 (human). The assay is described as follows: competition vs 125I-labeled peptide, purified HLA.
In turn, VVWLIKKNSTYPTIKR (modifications not checked) [Flu.HA.163] yielded a half-maximal inhibitory concentration (IC50) of 14 nM.

IYQILSIYSTVASSLA (modifications not checked) [Flu.HA.529] gave a half-maximal inhibitory concentration (IC50) of 13 nM.

Molecule EALMEWLKTRPILSP (modifications not checked) [Flu.M1.43] yielded an IC50 of 380 nM.

For the molecule MEWLKTRPILSPLTK (modifications not checked) [Flu.M1.46], the 50% inhibitory concentration (IC50) came to 3880 nM.

In turn, TRPILSPLTKGILGF (modifications not checked) [Flu.M1.51] had a concentration for half-maximal inhibition (IC50) of 292 nM.

The molecule ILSIYSTVASSLALAI (modifications not checked) [Flu.HA.532] came in with an IC50 of 7.6 nM.

PTTYISVGTSTLNQRL (modifications not checked) [Flu.HA.210] came in with an IC50 of 957 nM.

The next assay deals with HLA-DR DRB1*1501 (human). The assay is described as follows: competition vs 125I-labeled peptide, purified HLA.
The molecule VVWLIKKNSTYPTIKR (modifications not checked) [Flu.HA.163] yielded an IC50 of 99 nM.

As to IYQILSIYSTVASSLA (modifications not checked) [Flu.HA.529], the IC50 was 4.7 nM.

Take EALMEWLKTRPILSP (modifications not checked) [Flu.M1.43]: the IC50 amounted to 18 nM.

The molecule MEWLKTRPILSPLTK (modifications not checked) [Flu.M1.46] yielded an IC50 of 111 nM.

Molecule TRPILSPLTKGILGF (modifications not checked) [Flu.M1.51] returned an IC50 of 140 nM.

As to ILSIYSTVASSLALAI (modifications not checked) [Flu.HA.532], the IC50 came to 20 nM.

Consider PTTYISVGTSTLNQRL (modifications not checked) [Flu.HA.210], for which the IC50 amounted to 1720 nM.

The next assay addresses HLA-DR DRB4*0101 (human). The assay is described as follows: competition vs 125I-labeled peptide, purified HLA.
Molecule VVWLIKKNSTYPTIKR (modifications not checked) [Flu.HA.163] displayed an IC50 of 1660 nM.

Consider IYQILSIYSTVASSLA (modifications not checked) [Flu.HA.529], for which the IC50 came to 18 nM.

Take EALMEWLKTRPILSP (modifications not checked) [Flu.M1.43]: the IC50 worked out at 5510 nM.

Molecule MEWLKTRPILSPLTK (modifications not checked) [Flu.M1.46] had a 50% inhibitory concentration (IC50) of 7940 nM.

As to TRPILSPLTKGILGF (modifications not checked) [Flu.M1.51], the IC50 is 192 nM.

Molecule ILSIYSTVASSLALAI (modifications not checked) [Flu.HA.532] had an IC50 of 824 nM.

For the molecule PTTYISVGTSTLNQRL (modifications not checked) [Flu.HA.210], the half-inhibitory concentration (IC50) came out at 522 nM.

For another assay, the target named is purified HLA-DR molecule DRB1*0101 (human). The assay is described as follows: competition with 125I-labelled peptide for purified HLA.
LRNLMSQSRTREILT (modifications not checked) [LRNLMS1SRTREILT (Flu.PB2.10)] returned an IC50 of 613 nM.

Molecule MVAYMLERELVRKTR (modifications not checked) [… (Flu.PB2.205)] returned a half-maximal inhibitory concentration (IC50) of 97 nM.

In turn, RGILEDEQMYQKCCN (modifications not checked) [… (Flu.PB1.683)] returned a half-maximal inhibitory concentration (IC50) of 199 nM.

For the molecule PVHFRNQVKIRRRVD (modifications not checked) [… (Flu.PB2.135)], the concentration for half-maximal inhibition (IC50) was found to be 2970 nM.

Molecule QRGILEDEQMYQKCC (modifications not checked) [… (Flu.PB1.682)] yielded an IC50 of 433 nM.

The target in the next assay is purified HLA-DR molecule DRB1*0301 (human). The description is as above.
In turn, LRNLMSQSRTREILT (modifications not checked) [LRNLMS1SRTREILT (Flu.PB2.10)] displayed an IC50 of 978 nM.

The molecule MVAYMLERELVRKTR (modifications not checked) [… (Flu.PB2.205)] had a half-maximal inhibitory concentration (IC50) of 878 nM.

Take RGILEDEQMYQKCCN (modifications not checked) [… (Flu.PB1.683)]: the IC50 amounted to 43 nM.

The molecule PVHFRNQVKIRRRVD (modifications not checked) [… (Flu.PB2.135)] yielded a concentration for half-maximal inhibition (IC50) of 458 nM.

In the case of QRGILEDEQMYQKCC (modifications not checked) [… (Flu.PB1.682)], the IC50 was 34 nM.

In the next assay the target is purified HLA-DR molecule DRB1*0401 (human). Described as above.
As for LRNLMSQSRTREILT (modifications not checked) [LRNLMS1SRTREILT (Flu.PB2.10)], the IC50 turned out to be 4970 nM.

MVAYMLERELVRKTR (modifications not checked) [… (Flu.PB2.205)] returned a 50% inhibitory concentration (IC50) of 166 nM.

The molecule RGILEDEQMYQKCCN (modifications not checked) [… (Flu.PB1.683)] had an IC50 of 5740 nM.

Take PVHFRNQVKIRRRVD (modifications not checked) [… (Flu.PB2.135)]: the IC50 worked out at 1300 nM.

The molecule QRGILEDEQMYQKCC (modifications not checked) [… (Flu.PB1.682)] had a 50% inhibitory concentration (IC50) of 2560 nM.

Another assay concerns the target purified HLA-DR molecule DRB1*0404 (human). The description is as above.
As for LRNLMSQSRTREILT (modifications not checked) [LRNLMS1SRTREILT (Flu.PB2.10)], the IC50 turned out to be 170 nM.

Molecule MVAYMLERELVRKTR (modifications not checked) [… (Flu.PB2.205)] yielded an IC50 of 499 nM.

In the case of RGILEDEQMYQKCCN (modifications not checked) [… (Flu.PB1.683)], the IC50 is 10500 nM.

Consider PVHFRNQVKIRRRVD (modifications not checked) [… (Flu.PB2.135)], for which the IC50 is 5980 nM.

QRGILEDEQMYQKCC (modifications not checked) [… (Flu.PB1.682)] registered a 50% inhibitory concentration (IC50) of 3270 nM.

The target of the next assay is purified HLA-DR molecule DRB1*0405 (human). Described as above.
Consider LRNLMSQSRTREILT (modifications not checked) [LRNLMS1SRTREILT (Flu.PB2.10)], for which the IC50 amounted to 9690 nM.

Regarding MVAYMLERELVRKTR (modifications not checked) [… (Flu.PB2.205)], the IC50 worked out at 5540 nM.

Molecule RGILEDEQMYQKCCN (modifications not checked) [… (Flu.PB1.683)] returned a concentration for half-maximal inhibition (IC50) of 3280 nM.

Molecule PVHFRNQVKIRRRVD (modifications not checked) [… (Flu.PB2.135)] yielded an IC50 of 6040 nM.

In turn, QRGILEDEQMYQKCC (modifications not checked) [… (Flu.PB1.682)] showed a 50% inhibitory concentration (IC50) of 700 nM.

For a further assay, the target named is purified HLA-DR molecule DRB1*1302 (human). The description is as above.
As to LRNLMSQSRTREILT (modifications not checked) [LRNLMS1SRTREILT (Flu.PB2.10)], the 50% inhibitory concentration (IC50) is 5.4 nM.

As for MVAYMLERELVRKTR (modifications not checked) [… (Flu.PB2.205)], the 50% inhibitory concentration (IC50) amounted to 2080 nM.

As to RGILEDEQMYQKCCN (modifications not checked) [… (Flu.PB1.683)], the IC50 was determined as 18000 nM.

PVHFRNQVKIRRRVD (modifications not checked) [… (Flu.PB2.135)] came in with an IC50 of 359 nM.

In the case of QRGILEDEQMYQKCC (modifications not checked) [… (Flu.PB1.682)], the IC50 stood at 10900 nM.

The record behind these values is patent US20080032921A1.
